Test results reported in PMC8615271.

Molecular target: PDI and ERp72 (human)
Experiment: ITC; 280 µM P5 Cys55/58/190/193Ala mutant in the syringe (50 mM HEPES pH 7.2, 150 mM NaCl) titrated into 40 µM PDI or ERp72 in the cell (50 mM HEPES pH 7.2); 30 °C; one set of sites model

B1: Catalytically-inactive P5 (Cys55/58/190/193Ala) mutant (enzyme)
chain: LYSSSDDVIELTPSNFNREVIQSDSLWLVEFYAPWAGHAQRLTPEWKKAATALKDVVKVGAVDADKHHSLGGQYGVQGFPTIKIFGSNKNRPEDYQGGRTGEAIVDAALSALRQLVKDRLGGRSGGYSSGKQGRSDSSSKKDVIELTDDSFDKNVLDSEDVWMVEFYAPWAGHAKNLEPEWAAAASEVKEQTKGKVKLAAVDATVNQVLASRYGIRGFPTIKIFQKGESPVDYDGGRTRSDIVSRALDLFSDNAPPPELLEIINEDIAKRTCEEHQLCVVAVLPHILDTGAAGRNSYLEVLLKLADKYKKKMWGWLWTEAGAQSELETALGIGGFGYPAMAAINARKMKFALLKGSFSEQGINEFLRELSFGRGSTAPVGGGAFPTIVEREPWDGRDGELPVEDDIDLSDVELDDLGKDEL
With B1 the Kd was 2.4 to 4.1 µM.
